The record followed here is doi:10.64898/2025.12.19.695307 (bioRxiv, 2025).

Some targets named below: SARS-CoV-2 wild-type RBD (SARS-CoV-2, UniProt P0DTC2); Bat-RaTG13 RBD (Bat coronavirus RaTG13, UniProt A0ABF7PLN6); Bat-RsSHC014 RBD (Bat SARS-like coronavirus RsSHC014, UniProt U5WLK5); Bat-WIV1 RBD (Bat SARS-like coronavirus WIV1, UniProt U5WI05); GX2013 RBD (SARSr-CoV BtRs-BetaCoV/GX2013); HeB2013 RBD (SARSr-CoV BtRf-BetaCoV/HeB2013); SARS-CoV-1 RBD (SARS-CoV-1, strain not named, UniProt P59594).

What all share (experiment): BLI

Numbering of substitutions follows the chain as printed.

B1: C092 (antibody, V domains shown)
VH: QVQLVQSGAEVKKPGSSVKVSCKASGGSFTNHFISWVRQAPGQGLEWMGRIIPILGTANYAQNFQGRVMMTADKSTSTAYMELSSLRSEDTAVYYCARDSGYSGYGSTYYMDVWGKGTTVTVSS
VL: QSVLTQPPSVSGAPGQRVTISCTGSNSNIGAGYDVHWYQQLPGAAPKLLIYGNNNRPSGVPDRFSGSKSDTSASLAITGLQVEDEADYYCQSYDSSLSDSVFGSGTKVTVL
Consider B1, for which the binding result with SARS-CoV-2 wild-type RBD, with Bat-RaTG13 RBD, in the experiment with Bat-RsSHC014 RBD, with Bat-WIV1 RBD, in the experiment with GX2013 RBD and with HeB2013 RBD was “binds” in each case.

B2: C807 (antibody, V domains shown)
VH: QVQLVQSGAEAKKPGSSVKVSCKASGGTFKSYIINWVRQAPGQGLEWMGEIIPIFGTANYAQKFQGRVTSTADESTSTAYMELSSLKSEDTAVYYCARGRGYSGYGASYYFDYWGQGTLVTVSS
VL: B1 VL with A44T, G52A, N54S, D70G, V82A, S96G, D99G, S104G, V108L
In the case of B2, the binding result with SARS-CoV-2 wild-type RBD, with Bat-RaTG13 RBD, with Bat-RsSHC014 RBD, in the experiment with Bat-WIV1 RBD, with GX2013 RBD and with HeB2013 RBD was “binds” in each case.

B3: BD56-597 (antibody, V domains shown)
VH: QVQLVQSGAEVKKPGSSVKVSCKASGGTFSTYPISWVRQAPGQGVEWMGAIIPILGTTDYAQIFQGRVTITADKSTSTAYMELSSLRPEDTAVYYCARERGYSGYGAAYYFDSWGQGTLVTVSS
VL: B1 VL with N26D, A44T, G52V, N54I, D70A, V82A, D99G, S100V, S104G, V108L
B3: the binding result with SARS-CoV-2 wild-type RBD, with Bat-RaTG13 RBD, with Bat-RsSHC014 RBD, in the experiment with Bat-WIV1 RBD, in the experiment with GX2013 RBD and in the experiment with HeB2013 RBD was “binds” each time.

B4: R1-32 (antibody, V domains shown)
VH: EVQLVESGAEVKKPGSSVKVSCKASGGTFSSYAISWVRQAPGQGLEWMGGIIPILGIANYAQKFQGRVTITADKSTSTAYMELSSLRSEDTAVYYCARENGYSGYGAAANFDLWGRGTLVTVSS
VL: B1 VL with N26S, A44T, N54S, D70G, V82A, D99G, S104G, V108L
B4: the binding result with SARS-CoV-2 wild-type RBD, with Bat-RaTG13 RBD and with Bat-RsSHC014 RBD was “binds” in each case.

B5: R1-32-AAM (R1-32-artificial-affinity-matured) (antibody, V domains shown)
VH: B4 VH with A33F, N59D, Q62E, A109Y
VL: B1 VL with N26D, A44T, N54S, V82A, S104G, V108L
Take B5: the binding result with SARS-CoV-2 wild-type RBD is “binds”.

B6: BD56-104-R1-32 HCDR3 (antibody, V domains shown)
VH: QVQLVQSGAEVKTPGSSVKVSCKASGGTFGSHSITWVRQAPGQGLEWMGRVIPILGIPDFAESFQGRVAITADRSTSTAHMELSRLRSEDTAVYYCARENGYSGYGAAANFDLWGQGTLVTVSS
VL: QSVLTQPPSVSGAPGQRVTISCTGSNSNIGAGYDVHWYRQLPGTAPKLLIYVNNNRPSGVPDRFSGSRSGASASLAITGLQAEDEAEYYCQSYDSSLSGSIFGGGTKLTVL
Consider B6, for which the binding result in the experiment with SARS-CoV-2 wild-type RBD is recorded as “binds”.

B7: BD56-104 (antibody, V domains shown)
VH: B6 VH with E99D, N100V, Y105S, A107S, A108S, A109N, N110Y, L113S
VL: B6 VL
Regarding B7, the binding result is recorded as “binds” with SARS-CoV-2 wild-type RBD; “binds” with Bat-RaTG13 RBD; “binds” with Bat-RsSHC014 RBD; “no binding (tested: 200 nM RBD)” with Bat-WIV1 RBD; “binds” in the experiment with GX2013 RBD; “binds” in the experiment with HeB2013 RBD.

B8: ZL525 (antibody, V domains shown)
V domain 1: QVQLVQSGAEVKKPGSSMKVSCQASGGTFSSHPISWIRQAPGQGLEWMGRIIPIAGMTDYGQKFQGRITITADTSTSTSYVELRGLRSQDTAFYYCAKDVGYSDYGSAYYFHTWGQGTLITVSS
V domain 2: QSVLTQPPSVSGAPGQRVTISCTGSNSNIGAGYDVHWYQQLPGTAPKLLIYRNNKRPSGVPDRFSGSKSDTSASLAITGLQAEDEAHYYCQSFDSSLGGSLFGGGTKLAVL
B8: the binding result in the experiment with SARS-CoV-2 wild-type RBD, with Bat-RaTG13 RBD, in the experiment with Bat-RsSHC014 RBD, with Bat-WIV1 RBD, in the experiment with SARS-CoV-1 RBD and with GX2013 RBD was “binds” throughout. Besides, the binding result with HeB2013 RBD is “binds”.
